According to PMC3665079 (Biochemistry, 2013):
Where two headings read alike, the source gives them in different places.

How the values were obtained:
[1] = biological target: DnaT N-terminal core domain (E. coli); experiment: fluorescence polarisation
[2] = biological target: DnaT N-terminal core domain (E. coli); experiment: fluorescence polarisation; remark: listed apart in the source
[3] = biological target: the molecule itself; experiment: AUC
[4] = biological target: the molecule itself; experiment: fluorescence polarisation

| Molecule | dH [1] | dH [2] | stoichiometry N [3] | dH [4] |
| --- | --- | --- | --- | --- |
| DnaT N-terminal core domain (domain or fragment) | -4.6 kcal/mol | 2.2 kcal/mol |  |  |
| Escherichia coli DnaT protein (natural protein, E. coli, UniProt P0A8J2 1-179, looked up) MSSRVLTPDVVGIDALVHDHQTVLAKAEGGVVAVFANNAPAFYAVTPARLAELLALEEKLARPGSDVALDDQLYQEPQAAPVAVPMGKFAMYPDWQPDADFIRLAALWGVALREPVTTEELASFIAYWQAEGKVFHHVQWQQKLARSLQIGRASNGGLPKRDVNTVSEPDSQIPPGFRG |  |  | 3 | -15 ± 2 kcal/mol |
